Reference: patent US20040265295

Columns and labels:
[1] = test system: His-PIPKIγ661 C-terminus, wild-type (439-661)
[2] = test system: His-PIPKIγ661 C-terminus (439-661) Tyr644/649 to Phe mutant
[3] = test system: His-PIPKIγ661 C-terminus (439-661) Tyr649 to Phe mutant
[4] = test system: His-PIPKIγ661 C-terminus (439-661) Tyr644 to Phe mutant
His-PIPKIγ661 C-terminus (439-661) Tyr644 to Phe mutant, sequence (chain, as listed by the source mutant): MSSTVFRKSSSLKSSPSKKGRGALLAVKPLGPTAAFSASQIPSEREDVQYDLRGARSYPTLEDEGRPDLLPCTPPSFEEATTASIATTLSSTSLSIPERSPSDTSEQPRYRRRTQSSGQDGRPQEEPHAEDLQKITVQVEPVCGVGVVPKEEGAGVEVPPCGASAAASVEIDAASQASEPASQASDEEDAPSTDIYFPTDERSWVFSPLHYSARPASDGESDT

His-PIPKIγ661 C-terminus, wild-type (439-661), sequence (chain, as listed by the source): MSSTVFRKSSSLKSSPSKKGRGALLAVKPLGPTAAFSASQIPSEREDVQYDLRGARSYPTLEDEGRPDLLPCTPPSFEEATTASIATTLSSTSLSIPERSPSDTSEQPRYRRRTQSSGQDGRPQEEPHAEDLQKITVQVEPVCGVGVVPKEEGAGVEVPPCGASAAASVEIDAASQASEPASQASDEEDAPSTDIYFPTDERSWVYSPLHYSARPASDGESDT
His-PIPKIγ661 C-terminus (439-661) Tyr644/649 to Phe mutant, sequence (chain, as listed by the source mutant): as the sequence (chain, as listed by the source) above, with Y206F, Y211F counted along it
His-PIPKIγ661 C-terminus (439-661) Tyr649 to Phe mutant, sequence (chain, as listed by the source mutant): as the sequence (chain, as listed by the source) above, with Y211F counted along it

For c-SrcTyr527Phe, which “in vitro kinase assay, phosphorylation of the recombinant substrate” value (“in vitro kinase assay, phosphorylation” for short) [1] is on record?
The value was “c-Src directly phosphorylated recombinant PIPKIγ661 tail”.

What about the “in vitro kinase assay, phosphorylation” value [2] of the same substance?
The value was “not efficiently phosphorylated by c-Src in vitro compared with wild-type”.

What about the “in vitro kinase assay, phosphorylation” value [3] of the same substance?
Its value is “PIPKIγTyr^649->Phe is efficiently phosphorylated by c-Src”.

What about the “in vitro kinase assay, phosphorylation” value [4] of the same substance?
The value was “not efficiently phosphorylated by c-Src in vitro compared with wild-type”.
